Measured values: patent US20020137095A1 (RIKEN, published 2002)

B1: recombinant CR-50 epitope fragment of Reelin (residues 230-346) with C-terminal His-tag, from E. coli (other, not shown: small tags and cut ends)
chain: EQCGTIMHGNAVTFCEPYGPRELTTTCLNTTTASVLQFSIGSGSCRFSYSDPSITVSYAKNNTADWIQLEKIRAPSNVSTVIHILYLPEEAKGESVQFQWKQDSLRVGEVYEACWAL
notes: Under physiological conditions it forms a homopolymer of more than 600 kDa (more than 40 molecules of about 15 kDa)

Tests used:
[1] = target: T1, full-length mouse Reelin protein (mouse, UniProt Q60841 27-3461); test: cell adhesion assay after allowing for about 20% background, CR-50 at 20 µg/ml
T1 construct: whole, on cells; Secreted protein; Forms homophilic complexes of unstated size; also called native Reelin; full-length Reelin
T1 sequence (Q60841 27-3461): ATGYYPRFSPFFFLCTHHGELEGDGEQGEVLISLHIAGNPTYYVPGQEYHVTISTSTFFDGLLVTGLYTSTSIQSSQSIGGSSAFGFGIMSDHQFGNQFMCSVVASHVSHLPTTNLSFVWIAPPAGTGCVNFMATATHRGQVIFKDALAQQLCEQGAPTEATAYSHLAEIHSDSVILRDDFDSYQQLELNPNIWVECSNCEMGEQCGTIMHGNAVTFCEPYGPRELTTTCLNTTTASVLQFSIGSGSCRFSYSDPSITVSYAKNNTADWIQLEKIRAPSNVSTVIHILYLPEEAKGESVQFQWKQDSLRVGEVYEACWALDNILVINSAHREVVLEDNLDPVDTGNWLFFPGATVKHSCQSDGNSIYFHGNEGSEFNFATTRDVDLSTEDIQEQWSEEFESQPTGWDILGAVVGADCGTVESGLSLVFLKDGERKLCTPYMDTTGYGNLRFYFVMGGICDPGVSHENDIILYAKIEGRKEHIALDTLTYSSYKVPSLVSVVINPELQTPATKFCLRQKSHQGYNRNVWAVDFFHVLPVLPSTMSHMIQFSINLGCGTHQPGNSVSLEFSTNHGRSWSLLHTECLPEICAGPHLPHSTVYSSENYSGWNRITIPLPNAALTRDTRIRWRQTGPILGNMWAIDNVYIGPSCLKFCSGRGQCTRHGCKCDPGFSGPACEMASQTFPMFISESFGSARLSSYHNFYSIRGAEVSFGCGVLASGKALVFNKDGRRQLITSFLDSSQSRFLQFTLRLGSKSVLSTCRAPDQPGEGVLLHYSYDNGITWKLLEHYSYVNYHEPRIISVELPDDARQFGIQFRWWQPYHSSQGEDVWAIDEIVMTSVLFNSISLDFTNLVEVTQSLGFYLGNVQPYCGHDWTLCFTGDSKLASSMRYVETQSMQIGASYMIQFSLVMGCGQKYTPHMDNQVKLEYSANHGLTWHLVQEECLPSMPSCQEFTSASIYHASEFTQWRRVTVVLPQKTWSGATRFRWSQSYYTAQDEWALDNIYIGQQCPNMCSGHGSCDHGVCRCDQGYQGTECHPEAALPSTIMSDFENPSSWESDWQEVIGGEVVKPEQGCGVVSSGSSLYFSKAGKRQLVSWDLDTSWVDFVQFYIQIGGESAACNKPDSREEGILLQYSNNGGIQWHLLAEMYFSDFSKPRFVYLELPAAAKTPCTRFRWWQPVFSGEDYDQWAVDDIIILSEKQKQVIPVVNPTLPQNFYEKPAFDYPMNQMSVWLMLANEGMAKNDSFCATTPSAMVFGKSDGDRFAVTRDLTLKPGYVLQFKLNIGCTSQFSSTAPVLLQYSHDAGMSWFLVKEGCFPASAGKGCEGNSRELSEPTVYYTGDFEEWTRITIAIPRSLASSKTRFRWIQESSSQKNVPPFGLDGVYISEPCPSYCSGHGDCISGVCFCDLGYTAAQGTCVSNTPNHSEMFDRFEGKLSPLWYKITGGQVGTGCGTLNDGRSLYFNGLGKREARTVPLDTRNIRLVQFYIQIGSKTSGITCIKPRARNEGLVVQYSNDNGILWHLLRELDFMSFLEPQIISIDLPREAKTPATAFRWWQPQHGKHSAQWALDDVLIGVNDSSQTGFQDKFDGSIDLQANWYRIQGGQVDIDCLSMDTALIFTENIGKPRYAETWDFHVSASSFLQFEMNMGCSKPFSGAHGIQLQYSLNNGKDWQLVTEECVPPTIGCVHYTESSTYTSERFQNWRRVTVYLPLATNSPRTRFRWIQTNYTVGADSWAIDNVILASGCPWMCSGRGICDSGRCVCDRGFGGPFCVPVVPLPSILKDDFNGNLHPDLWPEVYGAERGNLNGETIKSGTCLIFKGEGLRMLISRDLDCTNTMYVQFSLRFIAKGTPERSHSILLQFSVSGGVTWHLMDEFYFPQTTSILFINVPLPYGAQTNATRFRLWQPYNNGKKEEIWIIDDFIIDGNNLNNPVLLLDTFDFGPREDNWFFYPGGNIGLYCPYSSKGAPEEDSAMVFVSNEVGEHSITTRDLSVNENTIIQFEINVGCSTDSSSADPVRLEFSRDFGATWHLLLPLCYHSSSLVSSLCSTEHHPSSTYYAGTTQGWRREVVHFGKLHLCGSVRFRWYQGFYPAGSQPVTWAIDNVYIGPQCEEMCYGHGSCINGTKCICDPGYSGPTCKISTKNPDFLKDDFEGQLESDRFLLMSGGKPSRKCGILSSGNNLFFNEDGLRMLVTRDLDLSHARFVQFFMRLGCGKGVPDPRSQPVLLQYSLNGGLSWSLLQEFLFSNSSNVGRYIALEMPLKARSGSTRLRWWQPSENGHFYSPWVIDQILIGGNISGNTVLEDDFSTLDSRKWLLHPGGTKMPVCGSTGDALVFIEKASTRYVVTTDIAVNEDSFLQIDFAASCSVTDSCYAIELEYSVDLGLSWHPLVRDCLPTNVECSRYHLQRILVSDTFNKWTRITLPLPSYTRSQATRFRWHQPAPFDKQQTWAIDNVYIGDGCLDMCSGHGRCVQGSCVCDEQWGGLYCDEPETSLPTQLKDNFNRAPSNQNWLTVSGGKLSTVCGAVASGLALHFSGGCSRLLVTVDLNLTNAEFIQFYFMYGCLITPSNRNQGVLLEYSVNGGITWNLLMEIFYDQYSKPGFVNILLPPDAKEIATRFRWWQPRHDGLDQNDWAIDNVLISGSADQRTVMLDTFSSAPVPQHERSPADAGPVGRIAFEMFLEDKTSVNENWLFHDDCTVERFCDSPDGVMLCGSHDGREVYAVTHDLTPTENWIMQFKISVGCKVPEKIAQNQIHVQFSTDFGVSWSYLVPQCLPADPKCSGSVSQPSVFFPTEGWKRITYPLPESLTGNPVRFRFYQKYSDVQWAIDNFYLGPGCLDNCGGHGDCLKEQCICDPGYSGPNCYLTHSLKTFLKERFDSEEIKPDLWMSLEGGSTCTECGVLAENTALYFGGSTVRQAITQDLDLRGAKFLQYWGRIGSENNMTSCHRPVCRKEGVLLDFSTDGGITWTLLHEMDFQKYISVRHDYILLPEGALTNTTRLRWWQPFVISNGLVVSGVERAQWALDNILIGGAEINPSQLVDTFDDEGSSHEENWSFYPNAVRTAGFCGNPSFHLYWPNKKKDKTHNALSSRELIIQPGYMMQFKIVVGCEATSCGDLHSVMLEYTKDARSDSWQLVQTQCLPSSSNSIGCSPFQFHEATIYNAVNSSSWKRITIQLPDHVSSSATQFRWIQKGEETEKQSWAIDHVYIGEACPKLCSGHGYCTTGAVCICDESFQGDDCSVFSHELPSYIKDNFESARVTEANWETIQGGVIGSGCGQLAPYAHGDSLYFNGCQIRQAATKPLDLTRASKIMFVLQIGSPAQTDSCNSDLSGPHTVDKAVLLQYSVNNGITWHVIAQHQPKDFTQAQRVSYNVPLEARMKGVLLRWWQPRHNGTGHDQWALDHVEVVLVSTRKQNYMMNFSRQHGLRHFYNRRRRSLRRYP

[2] = target: T1, full-length mouse Reelin protein; test: cell adhesion assay after allowing for about 20% background, CR-50 at 50 µg/ml
[3] = target: T1, full-length mouse Reelin protein; test: cell adhesion assay after allowing for about 20% background, CR-50 at 200 µg/ml
[4] = target: the molecule itself; test: analytical gel filtration (Superdex-200), 0.15 M NaCl, pH 7.4, 40 µM sample
Protocol: A FPLC gel filtration chromatography system (Pharmacia) was used for chromatography. This system was controlled by a computer FPLC director program (Pharmacia). The sample was loaded onto a Superdex-200 gel filtration column (separation range: 10 kDa to 600 kDa, Pharmacia), which had been pre-equilibrated with a buffer containing 20 mM sodium phosphate, pH 7.4, 0.15 M NaCl, and 5 mM DTT, and then eluted at flow rate of 0.5 ml/min. The sample concentration was adjusted to 40 μM.

[5] = target: T1, full-length mouse Reelin protein; test: cell adhesion assay: Reelin-presenting cells on CR-50 epitope-coated dishes (200 or 50 µg/ml)
Protocol: (A) Reelin-presenting cells on CR-50 epitope-coated dish (200 μg/ml). (B) Reelin-presenting cells on control-coated dish. (C) Histograms showing cell numbers in cell adhesion assay on CR-50 epitope-coated dishes (200 or 50 μg/ml) that are normalized to the control.
The former supernatant contained full-length Reelin molecules and the latter one contained no Reelin. After nitrocellulose/methanol treatment, Petri dishes were coated overnight with each supernatant. Petri dishes coated with the CR-50 epitope were prepared by overnight incubation with recombinant CR-50 epitope proteins produced from E. coli cells. […] After incubation for 2 hours, each plate was washed with panning buffer (PBS containing 10% v/v FCS) 7 to 10 times until no floating cells remained. To examine the effect of CR-50 antibody on cell adhesion, the antibody was added to the culture medium from the beginning of incubation. Then, the cells remaining on the dishes were observed by a microscope connected to a computer-controlled camera. This experiment was repeated five times, and for each dish, five microscopic fields were scored.

Molecule | specific binding left, fraction of the control (fraction of specific binding) [1] | specific binding left, fraction of the control (fraction of specific binding) [2] | specific binding left, fraction of the control (fraction of specific binding) [3] | binding result [4] | binding result [5]
CR-50 antibody | 0.33 | 0.25 | 0.1 |  | 
B1 |  |  |  | binds | binds
